Assay results taken from US20250327113A1 (ESPERANCE PHARMACEUTICALS, published 2025).

Molecular target: T1, human LHRH receptor (human, UniProt P30968 1-328)
T1 sequence: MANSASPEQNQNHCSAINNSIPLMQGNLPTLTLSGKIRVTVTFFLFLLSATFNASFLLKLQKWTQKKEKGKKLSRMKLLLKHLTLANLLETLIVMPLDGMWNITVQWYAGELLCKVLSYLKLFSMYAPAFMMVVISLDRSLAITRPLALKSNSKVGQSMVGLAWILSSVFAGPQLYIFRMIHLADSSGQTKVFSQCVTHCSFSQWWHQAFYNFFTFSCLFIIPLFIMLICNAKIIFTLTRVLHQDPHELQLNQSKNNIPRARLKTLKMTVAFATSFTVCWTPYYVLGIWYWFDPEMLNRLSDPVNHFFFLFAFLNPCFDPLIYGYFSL
Assay: cell-based or functional assay

B1: EP-100 (KFAKFAKKFAKFAKKFAKQHWSYGLRPG) (peptide)
peptide: KFAKFAKKFAKFAKKFAKQHWSYGLRPG
cytotoxicity IC50, MTT assay, 24 h, AN3-CA human endometrial cancer cells: 3.3 µM | cytotoxicity IC50, MTT assay, 24 h, LNCaP prostate cancer cells: 1.5 µM | cytotoxicity IC50, MTT assay, 24 h, MDA-MB-231 human breast cancer cells: 5.5 µM | cytotoxicity IC50, MTT assay, 24 h, MDA-MB-435S breast cancer cells: 0.8 µM | cytotoxicity IC50, MTT assay, 24 h, OVCAR-3 ovarian cancer cells: 3 µM | cytotoxicity IC50, MTT assay, 24 h, PC-3 prostate cancer cells: 5.5 µM
